Article PMC4575908

Substrate: O=C(O)[C@H]1O[C@@H](Oc2ccc([N+](=O)[O-])cc2)[C@H](O)[C@@H](O)[C@@H]1O
Type: biochemical
Settings: 37.0 °C

B1: SaGUS (Streptococcus agalactiae 2603V/R) (protein)
chain: MLYPLLTKTRNTYDLGGIWNFKLGEHNPNELLPSDEVMVIPTSFNDLMVSKEKRDYIGDFWYEKVIEVPKVSEDEEMVLRFGSVTHQAKIYVDGVLVGEHKGGFTPFEVLVPECKYNNEKIKVSICANNVLDYTTLPVGNYSEIIQEDGSIKKKVRENFDFFNYAGVHRPLKLMIRPKNHIFDITITSRLSDDLQSADLHFLVETNQKVDEVRISVFDEDNKLVGETKDSRLFLSDVHLWEVLNAYLYTARVEIFVDNQLQDVYEENFGLREIEVTNGQFLLNRKPIYFKGFGKHEDTFINGRGLNEAANLMDLNLLKDMGANSFRTSHYPYSEEMMRLADRMGVLVIDEVPAVGLFQNFNASLDLSPKDNGTWNLMQTKAAHEQAIQELVKRDKNHPSVVMWVVANEPASHEAGAHDYFEPLVKLYKDLDPQKRPVTLVNILMATPDRDQVMDLVDVVCLNRYYGWYVDHGDLTNAEVGIRKELLEWQDKFPDKPIIITEYGADTLPGLHSTWNIPYTEEFQCDFYEMSHRVFDGIPNLVGEQVWNFADFETNLMILRVQGNHKGLFSRNRQPKQVVKEFKKRWMTIPHYHNKKNSVK
B1 was tested, and the Km was 360 ± 30 µM, the kcat was 80 ± 2 s⁻¹ and the kcat/Km was 224000 M⁻¹ s⁻¹.
